Results on five molecules are retold here after patent US20200079876A1 (BIOVERATIV USA, published 2020).

Experiment [1] concerns the target T1, recombinant human complement component C1s (rhC1s) (human, UniProt P09871 16-688).
T1 sequence (looked up): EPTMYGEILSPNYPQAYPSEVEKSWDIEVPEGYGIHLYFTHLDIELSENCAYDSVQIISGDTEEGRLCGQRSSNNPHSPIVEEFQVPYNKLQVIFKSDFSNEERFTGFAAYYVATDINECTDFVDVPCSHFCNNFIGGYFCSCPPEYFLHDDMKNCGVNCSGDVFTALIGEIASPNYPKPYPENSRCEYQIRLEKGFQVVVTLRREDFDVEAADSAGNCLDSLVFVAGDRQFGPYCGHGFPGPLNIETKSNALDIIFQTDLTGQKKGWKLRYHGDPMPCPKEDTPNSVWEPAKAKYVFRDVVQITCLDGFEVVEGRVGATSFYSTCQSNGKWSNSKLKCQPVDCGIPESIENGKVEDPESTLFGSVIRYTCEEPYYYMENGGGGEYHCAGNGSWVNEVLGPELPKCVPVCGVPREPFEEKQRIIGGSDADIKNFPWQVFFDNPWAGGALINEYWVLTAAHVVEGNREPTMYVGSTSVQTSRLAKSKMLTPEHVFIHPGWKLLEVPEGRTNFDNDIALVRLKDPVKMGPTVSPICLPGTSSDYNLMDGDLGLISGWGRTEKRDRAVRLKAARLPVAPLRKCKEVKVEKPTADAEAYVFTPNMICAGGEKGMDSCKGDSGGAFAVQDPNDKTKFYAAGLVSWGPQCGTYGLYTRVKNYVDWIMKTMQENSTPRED
The experiment in a line: cell-based or functional assay.

Experiment [2] deals with T1, recombinant human complement component …. In words: cell-based or functional assay. This is another data set of the same source.
The next experiment addresses T2, Pro-C1s.
T2 construct: also called purified pro-C1s protein
T2 chain: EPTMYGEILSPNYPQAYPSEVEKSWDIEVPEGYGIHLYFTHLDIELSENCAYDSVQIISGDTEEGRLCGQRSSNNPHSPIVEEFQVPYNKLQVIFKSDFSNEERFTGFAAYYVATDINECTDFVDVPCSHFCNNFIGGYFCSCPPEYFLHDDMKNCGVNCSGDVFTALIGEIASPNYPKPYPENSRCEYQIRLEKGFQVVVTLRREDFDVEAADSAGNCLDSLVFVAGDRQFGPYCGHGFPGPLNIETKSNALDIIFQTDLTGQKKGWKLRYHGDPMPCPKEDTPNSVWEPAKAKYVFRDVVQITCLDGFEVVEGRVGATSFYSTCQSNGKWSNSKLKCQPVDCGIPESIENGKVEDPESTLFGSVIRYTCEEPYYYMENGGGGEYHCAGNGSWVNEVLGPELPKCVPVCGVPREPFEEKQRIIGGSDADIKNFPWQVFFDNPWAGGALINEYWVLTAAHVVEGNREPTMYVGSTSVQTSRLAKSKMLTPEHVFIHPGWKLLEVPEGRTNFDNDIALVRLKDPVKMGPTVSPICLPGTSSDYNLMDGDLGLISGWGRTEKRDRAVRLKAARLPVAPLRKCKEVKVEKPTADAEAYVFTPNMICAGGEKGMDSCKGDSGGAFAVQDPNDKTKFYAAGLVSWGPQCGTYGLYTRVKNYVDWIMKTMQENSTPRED
In words: bio-layer interferometry (BLI), kinetic analysis. (In general: In BLI a coated tip is dipped into the sample, and binding shifts an interference pattern.)

In experiment [3] the target is T3, purified human activated C1s protein, two-chain form (Homo sapiens, UniProt P09871 16-688).
T3 construct: Purified protein bought from EMD Millipore; Biotin-labeled in the clone screen; also called active C1s; native C1s protein
T3 sequence: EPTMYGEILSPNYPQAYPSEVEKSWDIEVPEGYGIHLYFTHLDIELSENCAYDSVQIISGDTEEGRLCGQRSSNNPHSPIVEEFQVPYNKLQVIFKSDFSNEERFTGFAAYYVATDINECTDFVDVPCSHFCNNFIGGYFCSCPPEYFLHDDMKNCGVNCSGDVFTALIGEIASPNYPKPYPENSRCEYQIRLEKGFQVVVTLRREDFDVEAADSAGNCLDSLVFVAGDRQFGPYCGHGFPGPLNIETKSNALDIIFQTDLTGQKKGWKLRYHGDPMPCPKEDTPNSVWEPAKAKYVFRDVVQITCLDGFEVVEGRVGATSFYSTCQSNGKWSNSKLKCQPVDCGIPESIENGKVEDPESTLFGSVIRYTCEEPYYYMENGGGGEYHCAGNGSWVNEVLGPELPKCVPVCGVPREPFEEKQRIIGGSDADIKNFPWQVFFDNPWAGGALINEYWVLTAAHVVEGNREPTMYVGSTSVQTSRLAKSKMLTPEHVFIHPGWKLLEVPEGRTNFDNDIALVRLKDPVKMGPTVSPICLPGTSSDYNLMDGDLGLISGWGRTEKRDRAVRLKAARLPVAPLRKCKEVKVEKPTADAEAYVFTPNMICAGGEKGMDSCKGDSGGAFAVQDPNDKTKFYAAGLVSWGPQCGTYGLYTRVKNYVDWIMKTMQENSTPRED
In words: bio-layer interferometry (BLI), kinetic analysis.

B1: antibody IPN-M14 (antibody, V domains shown)
VH: EVKLQQSGAELVRPGASVKLSCTASGFNIKDDYIHWVKQRPEQGLEWIGRIDPADGHTKYAPKFQVKATITADTSSNTAYLQLSSLTSEDTAVYYCARYGYGREVFDYWGQGTTLTVSS
VL: DIVLTQFPTFLAVFLGQRAPISCKASQSVDYDGDSYMNWFQQKTGQPPKILIYDASNLEFGIPTRFSGSGFGTDFPLNIHPVEEEDAAIYFCQQSNEDPWTFGGGPKLEIK
notes: Mouse monoclonal antibody (NZBW hybridoma)
Take B1: in experiment [1], the “inhibition of C1s protease activity (relative to nafamostat)” value (“inhibition … (relative to nafamostat)” for short) is greater than 50%. Also, the “Inhibition of C1s Protease Activity (%), single point with clone supernatant, relative to 100 nM nafamostat” value in experiment [2] is 100%. Moreover, in the experiment with Pro-C1s, binding was characterised by a dissociation constant (Kd) of 13.5 nM; the koff – broadly, the first-order rate constant of dissociation – is 0.000223 s⁻¹; the kon – broadly, the rate constant with which the complex forms – worked out at 16500 M⁻¹ s⁻¹. Moreover, in experiment [3], the Kd (as a rule, the constant that tells how readily two partners part at equilibrium) is 0.207 nM; the koff came out at 0.000231 s⁻¹; the kon amounted to 1.12e+06 M⁻¹ s⁻¹.

B2: antibody IPN-M8 (antibody, V domains shown)
VH: EVKLQQSGAELVRPGASVKLSCTASGFNIKDDYIHWVKQRPEQGLEWIGRIDPADGHTKYAPKFQVKATITADTSSNTAYLQLSSLTSEDTAVYYCARYGYGREVFDYWGQGTTLTVSS
VL: DIVLTQSPASLAVSLGQRATISCKASQSVDYDGDSYMNWYQQKTGQPPKILIYDASNLESGIPARFSGSGSGTDFTLNIHPVEEEDAAIYYCQQSNEDPWTFGGGTKLEIK
notes: Mouse monoclonal antibody (NZBW hybridoma); Same VL and VH as IPN-M2
Consider B2, for which the “inhibition … (relative to nafamostat)” value in experiment [1] was greater than 50%. Moreover, the “Inhibition of C1s Protease Activity (%), single point with clone supernatant, relative to 100 nM nafamostat” value in experiment [2] was determined as 100%. In the experiment with Pro-C1s, this molecule displayed a Kd of 19.7 nM, a koff of 0.000178 s⁻¹ and a kon of 9080 M⁻¹ s⁻¹. In experiment [3], this molecule came in with a Kd of 0.213 nM, a koff of 0.000234 s⁻¹ and a kon of 1.12e+06 M⁻¹ s⁻¹.

B3: antibody IPN-M3 (antibody, V domains shown)
VH: EVQLQQSGAELVRPGASVKLSCTASGFNIKDDYIHWVKQRPEQGLEWIGRIDPADDHTKYAPKFQDKATMTADTSSNTACLQLNSLTSEDTAVYYCAIYGSGWAWFPYWGQGTLVSVSA
VL: DIVLTQSTDYLAVSLGQRATISCKASQSVDYDGDSYMNWYQQKPGQPPKLLIYAASNLESGIPARFSGSGSGTDFTLNIHPVEEEDAATYYCQQSNEDPWTFGGGTKLEIK
notes: Mouse monoclonal antibody (NZBW hybridoma); Same VL and VH as IPN-M1 and IPN-M13
Consider B3, for which the “inhibition … (relative to nafamostat)” value in experiment [1] was greater than 50%. Moreover, in experiment [2], the “Inhibition of C1s Protease Activity (%), single point with clone supernatant, relative to 100 nM nafamostat” value was 89%. Besides, in the experiment with Pro-C1s, binding was put at a Kd of 102 nM, the koff is 0.00041 s⁻¹ and the kon turned out to be 4040 M⁻¹ s⁻¹. Moreover, in experiment [3], the Kd was found to be 0.187 nM, the koff amounted to 0.000158 s⁻¹ and the kon worked out at 845000 M⁻¹ s⁻¹.

B4: antibody IPN-M13 (antibody, V domains shown)
VH: EVQLQQSGAELVRPGASVKLSCTASGFNIKDDYIHWVKQRPEQGLEWIGRIDPADDHTKYAPKFQDKATMTADTSSNTACLQLNSLTSEDTAVYYCAIYGSGWAWFPYWGQGTLVSVSA
VL: DIVLTQSTDYLAVSLGQRATISCKASQSVDYDGDSYMNWYQQKPGQPPKLLIYAASNLESGIPARFSGSGSGTDFTLNIHPVEEEDAATYYCQQSNEDPWTFGGGTKLEIK
notes: Mouse monoclonal antibody (NZBW hybridoma); Same VL and VH as IPN-M1 and IPN-M3
Take B4: the “inhibition … (relative to nafamostat)” value in experiment [1] was greater than 50%. Also, in experiment [2], the “Inhibition of C1s Protease Activity (%), single point with clone supernatant, relative to 100 nM nafamostat” value came to 96%. Also, in the experiment with Pro-C1s, binding was characterised by a dissociation constant (Kd) of 15.9 nM, the koff is 0.000258 s⁻¹ and the kon was 16200 M⁻¹ s⁻¹. In experiment [3], this molecule returned a Kd of 0.133 nM, a koff of 0.000113 s⁻¹ and a kon of 851000 M⁻¹ s⁻¹.

B5: antibody IPN-M11 (antibody, V domains shown)
VH: QVQLQQSGAELVRPGASVKLSCTASGFNIKDDYIHWVKQRPEQGLEWIGRIDPADDHTKYAPKFQDKATMTADTSSNTACLQLNSLTSEDTAVYYCAIYGSGWAWFPYWGQGTLVSVSA
VL: DIVMTQSPDYLAVSLGQRAPISCKASQSVDYDGDSYMNWYQQKPGQPPKLLIYAASNLEFGIPTRFSGSGFGTDFPLNIHPVEEEDAATYYCQQSNEDPWTFGGGPKLEIK
notes: as for B1
In the case of B5, in experiment [1], the “inhibition … (relative to nafamostat)” value was greater than 50%. In addition, the “Inhibition of C1s Protease Activity (%), single point with clone supernatant, relative to 100 nM nafamostat” value in experiment [2] was 92%. In the experiment with Pro-C1s, this molecule showed a Kd of 35.2 nM, a koff of 0.000329 s⁻¹ and a kon of 9330 M⁻¹ s⁻¹. In experiment [3], this molecule displayed a Kd of 0.21 nM, a koff of 0.000182 s⁻¹ and a kon of 864000 M⁻¹ s⁻¹.
